Patent US20220125947A1 (published 2022)

B1: VG9B463 (antibody, human IgG1, lambda, V domains shown)
VH: EVQLVESGGGLVKPGGSLRLSCSASGFTFSNYDMNWVRQAPGKGLEWVSSISSSSSYIYYADSVKGRFTISRDNAKNSLYLQMNSLRAEDTAVYHCARDVGVTTDYYYYGMDVWGQGTTVTVSS
VL: QPVLTQSSSASGTPGQRVTISCSGSSSNIGSNTVNWYQQFPGTAPKLLIYTNTQRPSGVPDRFSGSKSGTLVSLAISGLQSEDEADYYCAAWDDSLNAWVFGGGTKLTVLG
notes: IgG1, lambda
B2: VG9B121 (antibody, human IgG1, kappa, V domains shown)
VH: EVQLVESGGGLVKPGGSLRLSCVASGFTFSDYAMDWVRQAPGKGLDWISSISSTSNYIFYADSVKGRFTISRDNAKNSLYLQMNSLRVEDSAVYYCANSYNWNYGGAFDIWGQGTMVTVSS
VL: DIQMTQSPGTLSSSPGERATLSCRASQSVSSSYFAWYQQKPGRAPRLLIYGASSRATGIPDRFSGSGSGTDFTLTISRLEPEDFAVYFCQQYGRSPLTFGGGTKVEIKR
notes: IgG1, kappa
B3: VG9B198 (antibody, human IgG1, lambda, V domains shown)
VH: QVQLQESGPGLVKPSETLSLTCTVSGDSISSIYWSWIRQSAGKGLEWIGRIYTTDITNYNPSLKSRVTMSADTSKNQLSLKLTSVTAADTAVYYCAKNGYSYGGFNYWGQGTLVTVSS
VL: QSVLTQPPSVSGAPGQRVTISCTGSSSNIGAGYDVHWYQRLPGTAPKLLIYGDSYRPSGVPDRFSGSKSGTSASLAITGLQAEDEADYYCQSYDSSLSVVVFGGGTKLTVLG
notes: IgG1, lambda
B4: VG9B469 (antibody, human IgG1, kappa, V domains shown)
VH: EVQLVESGGGLVKPGGSLRLSCAASGFTFSHYDMNWVRQAPGKGLEWVSSISSSSSYIFYADSVKGRFTISRDNAKNSLLLQMNSLRAEDTAVYHCARDRGVGDTSDYYSFGLDVWGQGTMVTVSS
VL: DIVMTQSPGTLSLSPGERATLSCRASQNVSSTYLAWYQQKPGQAPRLLIYGACSRATGIPDRFSGSGSGTDFTLTISRLEPEDYAVYYCQQYGSSPPYTFGRGTKLEIKR
notes: IgG1, kappa

target: γδ T cell receptor on human γδ T cells (AG000003021) (human); assay: flow cytometry, DRC binding at 37°C on human γδ T cells
Protocol: Binding of antibodies to human γδ T cells or SKW cell lines expressing Vγ9/Vδ2, Vγ9/Vδ2 or Vγ5/Vδ2 was carried out by flow cytometry. Briefly, the cells were centrifuged at 300×g for 5 minutes and the pellet was resuspended in 34 ml fresh media (in RPMI+10% FBS). 50 μL of the cells were then plated (44K cells/well) into assay plates. Samples were incubated for one hour at 37° C. in tissue culture (TC) incubator followed by wash steps by adding 100 μl FACS staining buffer. Secondary detention antibodies (A647 conjugated anti-human IgG Fc specific antibody (2 μg/mL) along with AF488 anti mouse CD3, clone OKT3 at 1 ug/mL) were added at 50 μL/well to appropriate wells according to the plate map. After incubating for 60 minutes at 37° C. in the TC incubator, cells were again washed as described above. This is followed by resuspension in 20 μL/well running buffer containing 1:1000 dilution of Sytox blue dead cell stain and the plates were run on iQue Screener.
Gating and data analysis: Human anti-human Vγ9 antibody (VG9B2 mAb at 10 nM) was used to mark the gating of positive population. All cells were first gated for singlets on SCS-A vs. SCS-H dot plot, live/dead followed by CD3 positive population, and this subset of CD3 positive population was gated for Vγ9 positive binding using positive control mAb. Cells were also assessed for cell binding of control mAbs by RL1 (A647) Geomeans from the live cell population. Advanced metrics were used and normalization metrics were chosen to calculate fold over background wells containing secondary antibody alone (designated as ‘background’ within ForeCyt settings).

First: B1
Second: B2
The “Max. Activity” value of the first is lower: 3030 fold over background for the first, 3670 fold over background for the second.

Going from B3 to B4, the “Max. Activity” value falls from 3040 fold over background to 3000 fold over background.
